This is an account of results in patent US20090246142A1, “Triggered Self-Assembly of Nanoparticles In Vivo” (MASSACHUSETTS INSTITUTE OF TECHNOLOGY, priority 2006, published 2009).

This assay has as its target TAMRA-C(Ahx)QpYDHPNI-CONH2 (CRK SH2-binding phosphopeptide) on nanoparticles (pY-peptide TSACs). As to the kind of experiment: DLS of nanoparticle assembly, 12 nM TSACs, both partners polyvalent on particles.

With “Crk SH2 domain with an N-terminal cysteine (cys-SH2), conjugated to iron oxide nanoparticles (SH2 TSACs) (from UniProt P46108 13-118)”, the hydrodynamic radius increase is 10 fold.
